For experiment [1], the target named is T1, Med12 (Srb8), S. cerevisiae (S. cerevisiae, UniProt P25648 1-1427).
T1 sequence: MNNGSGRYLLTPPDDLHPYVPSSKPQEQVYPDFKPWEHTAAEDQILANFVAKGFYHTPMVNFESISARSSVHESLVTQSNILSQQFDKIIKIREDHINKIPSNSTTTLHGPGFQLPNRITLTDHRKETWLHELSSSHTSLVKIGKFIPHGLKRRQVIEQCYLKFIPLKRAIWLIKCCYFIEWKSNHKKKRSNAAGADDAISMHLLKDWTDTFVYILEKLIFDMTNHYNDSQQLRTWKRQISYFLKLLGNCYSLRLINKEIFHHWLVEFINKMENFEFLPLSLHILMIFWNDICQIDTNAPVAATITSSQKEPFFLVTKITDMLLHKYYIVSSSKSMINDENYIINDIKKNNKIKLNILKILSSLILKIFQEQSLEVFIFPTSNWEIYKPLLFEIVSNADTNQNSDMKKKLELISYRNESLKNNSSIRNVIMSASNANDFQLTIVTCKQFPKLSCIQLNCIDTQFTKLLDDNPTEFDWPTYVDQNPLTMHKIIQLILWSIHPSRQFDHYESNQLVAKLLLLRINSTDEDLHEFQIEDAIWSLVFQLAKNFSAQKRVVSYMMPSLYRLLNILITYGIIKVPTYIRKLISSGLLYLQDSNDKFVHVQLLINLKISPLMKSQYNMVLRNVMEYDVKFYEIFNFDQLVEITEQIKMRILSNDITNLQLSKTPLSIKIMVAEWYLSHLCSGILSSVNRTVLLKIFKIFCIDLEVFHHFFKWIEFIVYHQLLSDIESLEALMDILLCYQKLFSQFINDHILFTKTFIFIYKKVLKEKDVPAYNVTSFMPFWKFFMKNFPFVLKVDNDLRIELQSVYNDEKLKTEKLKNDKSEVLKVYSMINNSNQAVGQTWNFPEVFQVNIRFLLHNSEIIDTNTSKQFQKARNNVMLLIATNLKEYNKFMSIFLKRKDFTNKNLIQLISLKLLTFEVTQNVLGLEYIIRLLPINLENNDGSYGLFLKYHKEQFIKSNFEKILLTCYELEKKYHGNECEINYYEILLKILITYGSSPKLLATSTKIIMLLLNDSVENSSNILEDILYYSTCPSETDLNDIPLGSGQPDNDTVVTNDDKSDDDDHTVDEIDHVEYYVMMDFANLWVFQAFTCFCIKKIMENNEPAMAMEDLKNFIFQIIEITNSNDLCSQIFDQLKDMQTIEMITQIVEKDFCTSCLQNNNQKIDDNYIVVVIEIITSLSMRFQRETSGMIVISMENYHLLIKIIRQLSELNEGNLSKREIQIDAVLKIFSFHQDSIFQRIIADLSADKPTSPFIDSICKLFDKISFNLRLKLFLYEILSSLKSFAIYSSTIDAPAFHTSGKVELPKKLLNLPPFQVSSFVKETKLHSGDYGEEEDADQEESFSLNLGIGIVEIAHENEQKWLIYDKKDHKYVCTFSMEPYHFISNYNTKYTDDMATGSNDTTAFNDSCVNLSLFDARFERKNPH
The experiment can be described thus: cryo-EM structure.

For experiment [2], the target named is T2, Cdk8 (Srb10) with a C-terminal TAP tag, S. cerevisiae (S. cerevisiae, UniProt P39073 1-555).
T2 sequence: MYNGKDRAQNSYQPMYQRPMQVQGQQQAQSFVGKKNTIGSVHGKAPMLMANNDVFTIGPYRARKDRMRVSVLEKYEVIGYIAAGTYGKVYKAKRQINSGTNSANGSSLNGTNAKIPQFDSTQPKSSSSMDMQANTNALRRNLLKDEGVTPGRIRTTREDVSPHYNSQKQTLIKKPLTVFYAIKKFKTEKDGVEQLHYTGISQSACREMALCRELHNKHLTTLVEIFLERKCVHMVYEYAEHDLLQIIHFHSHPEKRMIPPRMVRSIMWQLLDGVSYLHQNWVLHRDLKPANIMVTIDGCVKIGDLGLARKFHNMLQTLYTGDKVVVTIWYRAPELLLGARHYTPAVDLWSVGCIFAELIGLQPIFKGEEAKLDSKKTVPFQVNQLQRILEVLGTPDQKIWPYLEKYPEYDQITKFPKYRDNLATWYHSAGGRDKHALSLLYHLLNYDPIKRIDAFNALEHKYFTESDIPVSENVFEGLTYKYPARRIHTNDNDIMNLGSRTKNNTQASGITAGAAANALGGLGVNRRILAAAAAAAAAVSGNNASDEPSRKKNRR
Description: tandem affinity purification.

B1: Med13 (Srb9), S. cerevisiae (natural protein)
chain: MSSDASTYRLEDVLSSFYRVEKIKKINYHQYISKAQNDQWSIQMEFMLRKQDPKTLVALLSRDLWCFSINDDPVPTPPAIEHKPVSPDKIGTFTADYSKPNLPPHYALFLKALRRKIYINLALGSHNKLIQFGNACISLSGVPNYLVQLEPHLFVNGDLTVSLCAKNMGLVPMKEENLEESFLSKHALYLAPSGIRMHLAPASKQGYLITPPKHTELLLTTLSVSHGINLQNKKNLKWVAVVPDLGHLNGHTPTIASYLTPLLEAKKLVWPLHLIFAQPVADIENSTSGDPSEFHCLQDALDAIDDFIQLKQTAAYRTPGSSGVLSSNIAGTNPLSSDGAYTEQFQHYKNNSISSQPASYHSVQETNKISPKDFSPNFTGIDKLMLSPSDQFAPAFLNTPNNNINENELFNDRKQTTVSNDLENSPLKTELEANGRSLEKVNNSVSKTGSVDTLHNKEGTLEQREQNENLPSDKSDSMVDKELFGEDEDEDLFGDSNKSNSTNESNKSISDEITEDMFEMSDEEENNNNKSINKNNKEMHTDLGKDIPFFPSSEKPNIRTMSGTTKRLNGKRKYLDIPIDEMTLPTSPLYMDPGAPLPVETPRDRRKSVFAPLNFNPIIENNVDNKYKSGGKFSFSPLQKEEALNFDISMADLSSSEEEEDEEENGSSDEDLKSLNVRDDMKPSDNISTNTNIHEPQYINYSSIPSLQDSIIKQENFNSVNDANITSNKEGFNSIWKIPQNDIPQTESPLKTVDSSIQPIESNIKMTLEDNNVTSNPSEFTPNMVNSEISNLPKDKSGIPEFTPADPNLSFESSSSLPFLLRHMPLASIPDIFITPTPVVTISEKEQDILDLIAEQVVTDYNILGNLGIPKIAYRGVKDCQEGLITTTMLQLFSTFDRLNGNDTISKFYNMKQPYVFVKKHHELIKVKHDSQPFIKFLNFRPPNGIKNFKSLLLSSSFKEDCLSFAPTLSQTYINQELGFCELLKLTNEDPPGLMYLKAFDKNKLLLLAAQIVSYCSNNKNSIKNVPPILIILPLDNATLTELVDKANIFQVIKNEVCAKMPNIELYLKVIPMDFIRNVLVTVDQYVNVAISIYNMLPPKSVKFTHIAHTLPEKVNFRTMQQQQMQQQQQQQQQQQNNSTGSSSIIYYDSYIHLAYSRSVDKEWVFAALSDSYGQGSMTKTWYVGNSRGKFDDACNQIWNIALNLASKKFGKICLILTRLNGILPDDELMNWRRLSGRNIHLAVVCVDDNSKISFIDEDKLYPSFKPIYKDTRFGGRMDMTRLYDYEIRDIDQDIHGIVFQHPFPLAHSQHRCAIRSGALIKFKKCDGDTVWDKFAVNLLNCPHSDSTQLLETILEEFRNLAALNVWYGLSDGEDGHIPWHILAVKKMMNTLVHTRVKIANTSAATVHTATSSSIILSDK
On to B1, for which the binding result in experiment [1] was “binds”.

B2: CycC (Srb11), S. cerevisiae (natural protein)
chain: MSGSFWTSTQRHHWQYTKASLAKERQKLWLLECQLFPQGLNIVMDSKQNGIEQSITKNIPITHRDLHYDKDYNLRIYCYFLIMKLGRRLNIRQYALATAHIYLSRFLIKASVREINLYMLVTTCVYLACKVEECPQYIRTLVSEARTLWPEFIPPDPTKVTEFEFYLLEELESYLIVHHPYQSLKQIVQVLKQPPFQITLSSDDLQNCWSLINDSYINDVHLLYPPHIIAVACLFITISIHGKPTKGSSLASAASEAIRDPKNSSSPVQIAFNRFMAESLVDLEEVMDTIQEQITLYDHWDKYHEQWIKFLLHTLYLRPASAI
On to B2, for which the binding result in experiment [2] and in experiment [1] was “binds” each time.

The record behind these values is PMC3648612 (Nature structural & molecular biology, 2013).
